According to the supplement of paper PMC12042874:
± gives the uncertainty stated by the source.

Test: amyloid nucleation score (Sup35N fusion, yeast selection) (log enrichment); library NNK1; higher = more nucleation; inactive = no reads after selection
How it was run: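 The nucleation score is the log enrichment of output over input reads, calculated with DiMSum and centred on the mode score of non-aggregating sequences. Sequences with under 100 input reads were excluded. Reads came from Illumina sequencing of plasmid inserts from psi-negative yeast expressing Sup35N fused to peptides of 20 random codons, induced 24 hours with 100 μM copper sulfate and grown 7 days at 30°C without adenine and uracil.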

Substance	amyloid nucleation score
SGLFPVLGEHGNHRVSGSI	-1.4 ± 1.6
GFSILAPSKYVVNYWMHPQS	7.691 ± 0.049
SEQSMTY	inactive
QGCPRVWRSQSCCGVGGVIP	inactive
CGGFRNMRVPVHLVPACRW	0.334 ± 0.68
SWDVAYVSMF	0.124 ± 0.6
ELGLSINFQIANFAACQGYI	1.99 ± 0.24
VHSGNMMSNFGWAERLHKKA	-0.39 ± 1.2
MSPWASNHLW	inactive
NLRIGFVEQLSSGVLDGPDD	0.471 ± 0.97
PRDASWRTFVAKA	-0.026 ± 1.7
SLYTKWKSILPNWVFVCIAL	-1.35 ± 0.38
LYVTLV	2.23 ± 0.17
SSYVPSCCYWAVWFCVRGKY	1.58 ± 0.46
IECPMAYTKTYFVYESEKRN	inactive
ELGTVFGLTYYTMTDYVPMT	0.483 ± 0.22
QVFVIIIFPCMQWYDMYCSD	0.356 ± 0.55
FSITLTPHRGSVMNIYTANV	1.59 ± 0.17
YRFKFGVKWLAPNFLPAFGY	inactive
RRLTLYANFMRLEILSLNVN	0.146 ± 0.43
SNNELSTMTRL	-1.01 ± 1.2
SSGHSVRVDNKTGVWVWPVG	-0.329 ± 1.6
SKFVT	1.2 ± 0.9
RLAYYFKGNANDFLAYLAKY	-0.66 ± 0.76
LMLISHEDFLLVFAWFN	-0.062 ± 0.54

Substance	amyloid nucleation score
KFRSKLWNYFFACVEPATHP	-0.013 ± 0.72
KLQMGFIKMFAGQECFDVHA	inactive
PLYGC	0.634 ± 0.72
RMMVPYNHFYKSLWSGSTAY	0.959 ± 0.68
TLRYKNT	0.371 ± 0.76
WFGDGSCKRWLWGMKVTPED	-0.518 ± 0.69
LWLIVEDSVYFVGMQGHIFN	-0.381 ± 0.39
GLGVVPITAERRVSLRYSEC	-0.242 ± 0.35
ICSVRSELNSSTRC	0.803 ± 0.48
ILCCLMSFWDVRKFFFNQKA	-0.722 ± 0.41
CWLMGMSGPPFDRVWGVVIR	-0.086 ± 1.2
HHVWGFRSMLDSLHRSDCIQ	-0.989 ± 2.7
EYNGCYFPRIM	0.628 ± 0.66
CIFSRNQGLIHRLEDNGH	0.685 ± 0.33
QIIEPRARENGRINMMMVGG	0.481 ± 0.61
KDRFMSIYLVSYWSGLCTGL	inactive
FFRIARCHLEDRWVMIAGVL	0.118 ± 0.68
QIRGGGAGSDSVDGHRALEA	1.08 ± 0.59
TRRYWV	-0.679 ± 0.32
SVWMCM	2.64 ± 0.1
KSDLLNMRWVGYWFIVSSMR	0.099 ± 0.67
GTKWVTLQRGGRLGMGRRSD	0.562 ± 1.2
GITIITFIDGSLLGRDFPCW	2.14 ± 0.26
QTGQRFALKDSTSNSIPYLE	-0.607 ± 0.96
HSFSFCCSSYSCNLVGIELN	7.599 ± 0.043

Substance	amyloid nucleation score
ILVGCSKSRRLNGGQLLIPS	0.314 ± 0.45
ILLGYGQSMSRHIPTDKNEL	-0.79 ± 0.74
PIKVMIFVCNGFRKWHLMQH	0.268 ± 1.1
ICEVSLCYR	0.2 ± 1
VTARTRSDS	0.55 ± 0.55
FYFLKDY	-0.763 ± 0.3
NRTDKKDTLRWLFPT	0.435 ± 0.81
MYTFN	-0.031 ± 0.19
INDRVDGSVIEMSLCRYG	1.19 ± 0.8
PCSSVLLEHWSRYASRCEMV	1.28 ± 0.58
KRIDDYAKFRC	inactive
HYVKVRFRNRSVVYALIGGV	0.752 ± 0.54
PSFSDLSHALGSSLESWGYR	0.021 ± 0.8
TFTFVFW	3.46 ± 0.13
GVDRVRQCRARALDFSIGS	-0.372 ± 0.62
LPFVDLKFL	0.374 ± 0.28
RADPYVYLMEGVCGPRWEPN	0.014 ± 0.77
YFNVSWID	1.02 ± 0.38
TMYPLIRLYGSMSRNETGEW	0.437 ± 0.33
EIASLTRCYRSYRIVSWLRG	0.341 ± 0.37
TLSPTAGPAVVALILYGSLT	1.17 ± 0.65
WNSLSWRVRMRGDNQYRRGR	0.675 ± 1
HFRVSDKDL	1.2 ± 0.38
KLINCLGIVL	-0.92 ± 1.1
AQWVLMWYVRHVR	1.49 ± 0.18

Substance	amyloid nucleation score
RRAYIYWNRTCFFLVILLFQ	0.538 ± 0.84
RFYKCVLDVNTHLV	0.883 ± 0.6
WCCHAGAMFAMAKSL	0.468 ± 0.62
SRVLRPS	-0.174 ± 0.4
FRVFIYPMWRSMWCFGYKEG	inactive
TEGFNTANA	-0.34 ± 1.1
NGVVLLFFSDSADMRLCAAM	0.319 ± 0.58
TSPGRYFCRLHVLHSGM	-0.468 ± 1.9
TDYSFKLFTFFSSESNGFPI	-1.01 ± 1
PSRVKLKISKLL	-0.647 ± 0.94
NFFYT	-0.758 ± 1.1
ICLESNRFI	inactive
LLGRYNLLYIGMFRATRGGC	-0.094 ± 1.5
ILQFFDILSIYVCGWEHEL	6.273 ± 0.053
SARHSMAEAMEYYIFGWVPR	-1.16 ± 1.2
CVALGGLMAMLIASVIWENN	-0.354 ± 0.72
SCGCYKSSLVNLL	0.328 ± 0.9
PYWWS	inactive
GWSNSFA	0.123 ± 0.44
DRRFFSSV	-1.36 ± 1
STHNTRFGVY	0.167 ± 0.24
FGRGHGLTGR	0.25 ± 0.63
IWLSFKDLCKVRICSS	0.803 ± 0.59
TGNYDYVSFNQRKLHGCFNQ	-0.652 ± 0.93
NKLRGGVGERSVLQGWIEED	-0.052 ± 0.53

Substance	amyloid nucleation score
YWGLQPFMIY	0.272 ± 0.74
CLKFSIFDGE	0.127 ± 0.6
CWYLYRFSNTMMNRTTLPCG	-0.169 ± 0.53
PLVFCIITGPCV	-0.468 ± 0.55
SDFTIINFQYFLASCCTGYV	7.602 ± 0.048
KRFSSCLRRWAACNGESAAL	0.412 ± 0.45
FFVVVRAHIDPR	0.188 ± 0.5
KSVPRKVFGAILDFLDLQLM	0.979 ± 0.73
SALSGWVANSCYEVRGLRNV	inactive
FSILILRHCVDLRYRVTSTM	0.446 ± 0.6
YYWCAHPSCYPSVY	0.878 ± 0.58
SDLMWVLSCESLRITHRLVG	1.93 ± 0.56
GKKTRRLYVKWSSSFLNWMK	0.28 ± 0.85
FTYRGYSDQLMVSLLSLLSE	1.68 ± 0.48
PRCSMRLLGYTPIYDGKS	-0.781 ± 1.1
FVLSIFYIWGKSPSRTYWMN	-0.322 ± 0.74
WEPTR	0.174 ± 0.59
TSQENTDINGPCKLTSVLQR	0.436 ± 0.68
RNSMGLLAVEDVC	-1.16 ± 0.61
RPNSYGSLWRERIGLIYTYE	1.33 ± 0.79
VRYSGNMLSSTSVNGIFGHE	0.067 ± 0.28
VSTSNSYDSSQHDLDFRQSG	-0.162 ± 0.63
RLEYCSRRWLANTLSGGRSL	0.002 ± 0.96
FWLNLPAWISFAMFVCIVYV	-0.132 ± 0.47
PLTLFYLLNTHAVEFSKVNC	-0.674 ± 0.47

Substance	amyloid nucleation score
VLCNLTVS	-0.907 ± 1.8
VRLLEHSANPSMGKMNMNVG	0.231 ± 0.74
FCMTMRSARCGHLSMYCCFQ	1.8 ± 0.4
MMRGTLC	0.458 ± 0.41
ACMRCFGNICSLWSVKGN	7.417 ± 0.052
GYGQCSGSYAGSGGT	0.715 ± 0.57
RWGDHKQC	0.041 ± 0.41
LIHVRCSLVQCANSELQGAG	2.65 ± 0.28
YLDGVECTN	-0.366 ± 0.63
YRLRGGP	-0.25 ± 1.2
IMHQYRRGYDRDLNWNRMFR	0.035 ± 0.72
KSLQTETFTKTAATQKSELA	-0.3 ± 0.52
VYDLS	-0.006 ± 0.72
SPKPYFSRKYVIKIHKRS	-1.54 ± 1.4
RVSFQIVTVGWC	-1.13 ± 1.2
VERGY	1.03 ± 0.61
RCASALVSGVTSVSLRTVQD	0.83 ± 0.73
FVCSVFKSYCKSRVFFARAT	-0.025 ± 0.28
NISVVGSSING	0.713 ± 0.23
CIFPRCVYLYHSVWVDVVGC	-0.097 ± 0.61
CVLPYCS	0.297 ± 0.54
WSFLDWWIRSRSLITVCVVS	-0.348 ± 0.46
FIYVDSGDKNGYCACDKFLP	6.059 ± 0.052
FCLFGRLVTFLAVKMYVNCE	-0.529 ± 0.3
AVVLLLNRTD	0.282 ± 0.59

Substance	amyloid nucleation score
RTSLNLNIRNTWAKWLGAEF	4.29 ± 0.1
CLFFLPQGLKRYE	0.015 ± 0.53
LSSRHVAGYQEYLNDL	-0.88 ± 0.72
FGRVRCLESEICSCGFFVDE	3.03 ± 0.15
ILICQCLMLACGRVFSFYLV	-0.328 ± 0.57
GDYSCPLGNIINHDPMLFRW	0.107 ± 0.23
KGYYDFRGVSLMVPVMFTMS	0.048 ± 0.38
AHFIFCKTFTLCLLLFCKLT	0.057 ± 0.83
RYWLYVKFGWYLTDGFYSGS	0.665 ± 0.29
NWFTSMRGLYVSLWYRMKKG	inactive
LNTVSEITVVAKLNF	2.3 ± 0.12
NDLAKHLGFTVTF	0.011 ± 0.28
VYGSPPNMWNVV	0.066 ± 0.79
GWQRSRVAVAPVVVTQSCGV	-0.671 ± 1.6
VMCVTIMSVFWNGLRNVEAM	0.977 ± 0.18
FSVMKCWPSPRPVNRFLIYA	-0.706 ± 0.46
ILLVSNEEISLCYCVYLGWM	5.729 ± 0.056
TMYSVYRFVGCKKSFMVRKG	0.454 ± 0.4
SRRYLRVGCKVNVHTFGLYL	-0.502 ± 1
PTLVRECFEALSVSDYPVPG	-0.674 ± 1.7
AVRGINCCKRQSWKCNLCM	0.915 ± 0.56
LRCLVLYDEVANGRPEDSGG	0.725 ± 1
LIRNINHWASYRFFCNCSSW	6.443 ± 0.06
